Substitutions are numbered along the chain they refer to.
B1: C707 (antibody, V domains shown)
VH: EVQLVESGGGLVKPGGSLRLSCAASGFTFSSYSMNWVRQAPGKGLAWVSSISSSNNIIYYADSVKGRFTISRDDAKDSLYLHMKSLRADDTAVYFCARVPSWAPYQLLPGPFDYWGQGILVTVSS
VL: IRMTQSPSSLSASVGDRVTITCQASQAIASYLSWYQHKPGRAPKLLIYDASNLEIGVPSRFSGSGSGTDFTFTISSLQSEDNATYYCQQYESLPGTFGGGTKVEIK
B2: C708 (antibody, V domains shown)
VH: EVQLVESGGGLVQPGGSLRLSCAASGFSFSTYWMSWVRQAPGKGLEWVADIKQDGSEKYFVDSVKGRFTISRDNAKNSLYLHLNSLRAEDTAVYYCAREMAGSGNYYWFGYGMDVWGQGTTVTVSS
VL: IRMTQSPSSVSASVGDRVTITCRASQGISSWLAWYQQKPGKAPKLLIYAASSLQSGVPSRFSGSESGTDFTLTISSLQPEDFATYYCQQANSFPLTFGGGTKVEIK
B3: C709 (antibody, V domains shown)
VH: QVQLVQSGAEVRKPGASVKVSCMASGYTFNTYDINWVRQGTGQGLEWMGWMNPNSGNTGHAQKFQGRVAMTVNTSMNTAYMELSSLRSEDTAVYYCARGADMLNVAVGADFDYWGQGTLVTVSS
VL: QSALTQPPSASGSPGQSVTISCTGTSSDVGGYNFVSWFQQHPGKAPKLMIYEVSKRPSGVPDRFSGSKSANTASLTVSGLQAEDEADYFCSSYAGSNNWVFGGGTKLTVL
B4: C054 (antibody, V domains shown)
VH: EVQLVESGGGLIQPGGSLRLSCAASGFTVSNNYMSWVRQAPGKGLEWVSVIYSGGSTYDADSVKGRFTISRDNSKNTLYLQMNSLSAEDTAVYYCAREGDVEGYYDFWSGYSRDRYYFDYWGQGTLVTVSS
VL: QSALTQPASVSGSPGQSITISCTGTSSDVGGYNYVSWYQQHPGKAPKLMIYDVSNRPSGVSNRFSGSKSGNTASLTISGLQAEDEADYYCSSYTSSSARVFGTGTKVTVL
B5: C052 (antibody, V domains shown)
VH: B4 VH with Q13R, T28S, S56T, D59Y, T68N, L78V, S86R, T125A
VL: B4 VL with S91N, S96N, S97N, A98T
B6: C144 (antibody, V domains shown)
VH: B4 VH with D59Y, N73K, S84R, S86R, D100E, Y105N
VL: B4 VL with A98T
B7: C050 (antibody, V domains shown)
VH: EVQLVESGGGLFQPGGSLRLSCAASGFSVRNNYVSWVRQAPGKGLEWVSVIYSGGTTYYADSVKGRFTISRDISENTLYLQMNSLRAEDTAVYYCAREGDVEGLHDFWSGYSRDRYYFDYWGQGTLVTVSS
VL: B4 VL with T19I, S27G, V29I, N55F, G70D, Y93F, S95G, S96N, S97N, A98T
B8: C051 (antibody, V domains shown)
VH: EVQLVESGGGLIQAGGSLRLSCAASGFGVRNNYMSWVRQAPGKGLEWVSVIYSGGTTYYADSVKGRFTISRDNSKNTVFLQMNSLRAEDTAVYYCAREGDVEGFSDLWSGYSRDRYYFDYWGQGTLVTVSS
VL: B4 VL with I20F, H41Y, M49L, S54T, N62D, Y93F, S97N, A98T
B9: C053 (antibody, V domains shown)
VH: B4 VH with T28I, E46D, S56T, D59Y, S86R, Y105H, F107S
VL: B4 VL with T25S, Y34F, K44R, A82V, S95N, S96N, S97N, A98T
B10: C164 (antibody, V domains shown)
VH: EVQLVESGGGLVQPGGSLRLSCAASGFSVSTKYMTWVRQAPGKGLEWVSVLYSGGSDYYADSVKGRFTISRDNSKNALYLQMNSLRVEDTGVYYCARDSSEVRDHPGHPGRSVGAFDIWGQGTMVTVSS
VL: QSALTQPASVSGSPGQSITISCTGTSNDVGSYTLVSWYQQYPGKAPKLLIFEVTKRSSGISNRFSGSKSGNTASLTISGLQGEDEADYYCCSYAGASTFVFGGGTKLTVL
B11: C143 (antibody, V domains shown)
VH: B10 VH
VL: B10 VL with V53G
B12: C055 (antibody, V domains shown)
VH: B10 VH with G55R, S56T, N73S, A77I, N83S, V92F, G120S
VL: B10 VL with T19A, V53D, T54S, K55Q, Q81R, A96S, S97H, L107V
B13: C058 (antibody, V domains shown)
VH: QVQLVQSGAEVKKPGASVKVSCKASGYIFTDYSMHWVRQAPGQGLEWIGWVNPNSGGTNYAQKFQGWVTMARDTSITTVYMELSRLKSDDTAVYFCARGPLFHRLVYDFWSGYHDGFDMWGQGTMVTVSS
VL: B4 VL with N33K, Y34F, D52E, S91N, A98T, R99W, T103G, V107L
B14: C544 (antibody, V domains shown)
VH: QVQLVQSGAEVKKPGASVKVSCKASGYTFSSHDINWVRQATGQGLEWVGWMNPNSGNTGSAQSFQGRVTLTRNASISTAYLELSSLRSEDTAVYFCARGFSLTWYFDLWGRGTLVTVSS
VL: SYELTQPPSVSAAPGKTARITCGGNNIGGKNVHWYQQKPGQAPVLVVFDDSDRPSGIPERFSGSNSGNTATLTISRVEAGDEADYYCQLWDSTSDHPDVVFGGGTQLTVL
B15: C542 (antibody, V domains shown)
VH: EVQLVESGGGLVQPGGSLRLSCAASGLTVTSNYMSWVRQAPGRGLEWVSLIYPGGTTYYADSVKGRFTVSRDNSKNTLYLQMDSLRAEDTGVYYCARETLGRGGDCWGQGTLVTVSS
VL: DIQMTQSPSSLSASVGDRVTITCQASQDISNFLNWYQQKPGKAPKLLIYDASNLETGVPSRFSGSRSGTDFTFTISSLQPDDIATYYCQQYDNLPRSFGQGTKLEIK
B16: C213 (antibody, V domains shown)
VH: EVQLVESGGGLVKPGGSLRLSCAASGFTFSSYSMNWVRQAPGKGLEWVSSISSSSSYIYYADSVKGRFTISRDNAKNSLYLQMNSLRAEDTAVYYCARVQVGARGWVDYWGQGTLVTVSS
VL: NFMLTQPHSVSESPGKTVTISCTRSSGSIASNYVQWYQQRPGSAPTTVIYEDNERPSGVPDRFSGSIDSSSNSASLTISGLKTEDEADYYCQSYDRINWVFGGGTKLTVL
B17: C217 (antibody, V domains shown)
VH: B16 VH with S50F, S54R
VL: B16 VL with E54Q, R96S
B18: C545 (antibody, V domains shown)
VH: B16 VH with V5L, S31D, N35T, S50F, S56T, N77S, S85R, A97T, V107A
VL: B16 VL with H8L, S43G, N53T, E54Q, Y94C, R96T, L110V
B19: C548 (antibody, V domains shown)
VH: QVQLVQSGAEVKKPGSSVKVSCKASGGTFSSYAISWVRQAPGQGLEWMGGIIPIFGTANYAQKFQGRVTITADESTSTAYMELSSLRSEDTAVYYCARREAYGPRDYYYYYGMDVWGQGTTVTVSS
VL: QSALTQPPSASASLGASVTLTCTLSSGYSNYKVDWYQQRPGKGPRFVMRVGTGGIVGSKGDGIPDRFSVLGSGLNRYLTIKNIQEEDESDYHCGADQGSGSNFVGVFGGGTKLTVL
B20: C549 (antibody, V domains shown)
VH: QVQLVQSGAEVKKPGSSVKVSCKASGGTFSTSAISWVRQAPGQGLEWMGGIIPFFGTPNYAQKFQGRVTIIADESTTTAYMELSGLRFEDSAVYYCARREPYGPRDYYYFFGMDVWGPGTTVTVSS
VL: QSALTQPPFASASLGASVTLTCTLSSDYSYYKVDWYQQRPGKGPRFVIRVGPGGIVGSKGDGFPDRFSVLGSGLNRSLTINNIQEEDEGDYHCGADEGSGGTFVGVFGGGTKLTV
B21: C552 (antibody, V domains shown)
VH: QVQLVESGGGVVQPGRSLRLSCAASGFTFSSYAMHWVRQAPGKGLEWVALISYDGSNKHYADSVKGRFTISRDNSKNTLYLQMNSLRAEDTAVYYCARAGTTNSDYFDYWGQGTLVTVSS
VL: SYELTQPPSVSVAPGKTARITCGGNNIGSKSVHWYQQKPGQAPVLVIYYDTDRPSGIPERFSGSNSGNTATLTISRVEAGDEADYYCQVWDSSSALWVFGGGTKLTVL
B22: C553 (antibody, V domains shown)
VH: B21 VH with S31N, A33E, M34I, L50G, N57T, H59Y, A88P, Y94F
VL: B21 VL with K16M, N26T, P39A, T51S, A95V
B23: C558 (antibody, V domains shown)
VH: EVQLVQSGAEVKKPGESLKISCKVSGYTFTNYWIGWVRQMPGKGLEWMGIIYPGDSDTRYSPSFQGQVTISADKSIITAYLQWSSLKASDTAMYYCARVPSSSDYGDYGGFEYWGQGTLVTVSS
VL: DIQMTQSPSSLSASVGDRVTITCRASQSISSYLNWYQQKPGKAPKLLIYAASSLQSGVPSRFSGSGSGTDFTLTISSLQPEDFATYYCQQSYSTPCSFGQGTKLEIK
B24: C559 (antibody, V domains shown)
VH: B23 VH with Y52F, K74R, I77T, S84R
VL: DIQMTQSPSSLSASVGDRVTITCRASQTITIYLNWYQQKPGKAPKLLIYAASSLQSGVPSRFSGSGSGTDFTLTISSLQPEDFATYYCQQSYSTPCSFGQGTKLEIK
B25: C564 (antibody, V domains shown)
VH: EVQLLESGGGLVQPGTSLRLSCAASGFTFSSYAMSWVRQAPGKGLEWVSAISSSGGSTYYADSVKGRFTISRDNSKNTLYLHMNSLRAEDTAVYYCATERIAVAGTRMYNWFDPWGQGTLVTVSS
VL: DIQMTQSPSSLSASVGDRVTLTCRASQSISSYLNWYQQKPGKAPNLLIYAASSLQSGVPSRFSGSGSGTDFTLTISSLQPEDFATYYCQQSYSAPPWTFGQGTKVEIK
B26: C546 (antibody, V domains shown)
VH: EVQLLESGGGLVHPGGSLRLSCAASGFTFSTYAMHWVRQAPGKGLEWVSAISGSGTGTFYADSVKGRFSISRDNSKNTLYLQMNSLRAEDTAVYYCATERIAVSDTRMYNWFDPWGQGTLVTVSS
VL: B25 VL with S28G, S31T
B27: C560 (antibody, V domains shown)
VH: EVQLVESGGGLVQPGRSLRLSCAASGFTFDDYAMHWVRQAPGKGLEWVSGVSWNSGTIGYADSVKGRFTISRDNAKNSLYLQMNSLRAEDTALYYCAKIADIVRAYDFWSGQHFDAFDIWGQGTMVTVSS
VL: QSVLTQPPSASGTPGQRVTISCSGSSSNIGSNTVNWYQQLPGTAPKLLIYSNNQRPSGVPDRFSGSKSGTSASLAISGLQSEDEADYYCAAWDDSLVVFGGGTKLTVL
B28: C561 (antibody, V domains shown)
VH: B27 VH with M34I, T69F, L93W, I102L, R104G, W109R, D115A, I119V
VL: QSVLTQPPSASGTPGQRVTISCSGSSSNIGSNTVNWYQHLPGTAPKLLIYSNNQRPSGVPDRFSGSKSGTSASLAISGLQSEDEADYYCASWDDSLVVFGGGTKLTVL

Columns and labels:
[1] = target: SARS-CoV-2 spike receptor binding domain (RBD), wild type (SARS-CoV-2, UniProt P0DTC2 319-539); assay: ELISA on coated RBD protein
[2] = target: SARS-CoV-2 spike receptor binding domain (RBD), wild type (SARS-CoV-2, UniProt P0DTC2 319-539); assay: ELISA, RBD protein coated, mAb titrated

Row | Binder | EC50 [1] | EC50 [2]
1 | B1 | 26 ng/mL | –
2 | B2 | 130 ng/mL | –
3 | B3 | 7.56 ng/mL | –
4 | B4 | 1.58 ng/mL | –
5 | B5 | 1.23 ng/mL | –
6 | B6 | 1.83 ng/mL | –
7 | B7 | 1.93 ng/mL | –
8 | B8 | 1.65 ng/mL | –
9 | B9 | 1.53 ng/mL | –
10 | B10 | 1.41 ng/mL | –
11 | B11 | 2.01 ng/mL | –
12 | B12 | 1.25 ng/mL | –
13 | B13 | 2.28 ng/mL | –
14 | B14 | – | 2.34 ng/mL
15 | B15 | – | 1.07 ng/mL
16 | B16 | – | 2.02 ng/mL
17 | B17 | – | 2.28 ng/mL
18 | B18 | – | 3.68 ng/mL
19 | B19 | – | 1.72 ng/mL
20 | B20 | – | 1.76 ng/mL
21 | B21 | – | 1.08 ng/mL
22 | B22 | – | 1.19 ng/mL
23 | B23 | – | 2.41 ng/mL
24 | B24 | – | 2.89 ng/mL
25 | B25 | – | 14.6 ng/mL
26 | B26 | – | 3.57 ng/mL
27 | B27 | – | 1.6 ng/mL
28 | B28 | – | 1.53 ng/mL

Source: US20220195015A1 (published 2022)
